For this data set, the system named is O=c1[nH]c(=O)c2[nH]cnc2[nH]1. As to the kind of experiment: cells, lysate or membranes. The settings on record: labelled compound, H+ symport, MM pH 6.8, 37 °C.

Take “UapA (Aspergillus nidulans FGSC A4; K73A/R133A)”: the Km – broadly, the concentration of substrate that gives half-maximal velocity – is 3.6 µM.
As for UapA (Aspergillus nidulans FGSC A4), the figure is 5 ± 2 µM.

The values above are taken from doi:10.1101/710897v1.
